Assay results reported in patent US20100197896A1 (published 2010).
Each block holds one binder with its values, some of them ahead of it.

Target: T1, human CD20 antigen (human, UniProt P11836 1-297)
T1 construct: whole, on cells; also called MS4A1
T1 sequence (looked up): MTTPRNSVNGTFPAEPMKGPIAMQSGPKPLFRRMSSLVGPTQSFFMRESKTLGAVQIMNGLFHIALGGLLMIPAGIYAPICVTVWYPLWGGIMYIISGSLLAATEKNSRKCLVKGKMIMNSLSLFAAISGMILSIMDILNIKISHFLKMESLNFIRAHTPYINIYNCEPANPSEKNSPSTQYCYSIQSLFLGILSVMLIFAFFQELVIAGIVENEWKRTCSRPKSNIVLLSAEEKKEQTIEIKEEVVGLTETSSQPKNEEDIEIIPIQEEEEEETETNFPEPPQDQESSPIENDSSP
Test: competition flow cytometry against FITC-conjugated fr1F5 (FIG. 6)

binding result: binds
B1: murine 1F5 antibody (antibody, V domains shown)
VH: QVQLRQPGAELVKPGASVKMSCKASGYTFTSYNMHWVKQTPGQGLEWIGAIYPGNGDTSYNQKFKGKATLTADKSSSTAYMQLSSLTSEDSAVYYCARSHYGSNYVDYFDYWGQGTTLTVSS
VL: QIVLSQSPAILSASPGEKVTMTCRASSSLSFMHWYQQKPGSSPKPWIYATSNLASGVPARFSGSGSGTSYSLTISRVEAEDAATYFCHQWSSNPLTFGAGTKLELKR
notes: Mouse IgG with a kappa light chain, from hybridoma ATCC HB-9645; also called anti-CD20 mAb 1F5

binding result: binds
B2: framework-re-engineered 1F5 antibody (antibody, V domains shown)
VH: QVQLVASGAEVNKPGASVKVSCKASGYTFTSYNMHWVRQPPGRGLEWIGAIYPGNGDTSYNQKFKGRVTITADKSTSTAYMELSSLRSEDTAVYYCARSHYGSNYVDYFDYWGQGTTVTVSS
VL: DIQLTQSPSSLSASVGDRVTITCRASSSLSFMHWYQQKPGQAPVPVIYATSNLASGVPSRFSGSGSGTEFTLTISSLQPEDFATYFCHQWSSNPLTFGAGTKLTVLR
notes: also called fr1F5
